Test [1] has as its target thrombin. As to the kind of experiment: cell-based or functional assay.
The target of test [2] is thrombin. As to the kind of experiment: SPR (Biacore 3000), 50 nM TM irradiated with 80 Gy over immobilized thrombin; reference is sham-irradiated (0 Gy) TM; 3 experiments. For orientation: In SPR one partner is held on a chip, and binding of the other changes the refractive index at the surface.
In test [3] the target is thrombin. The experiment in a line: SPR (Biacore 3000), 50 nM TM irradiated with 1.77 Gy over immobilized thrombin; reference is sham-irradiated (0 Gy) TM; 3 experiments.
Test [4] concerns the target thrombin. The experiment in a line: SPR (Biacore 3000), 50 nM TM irradiated with 20 Gy over immobilized thrombin; reference is sham-irradiated (0 Gy) TM; 3 experiments.

In the case of “recombinant full length human thrombomodulin (from UniProt P07204 19-515) (receptor)”, in test [1], the mean reduction in protein C activation, TM exposed to 1.77 Gy without MPO was 12%. Moreover, the reduction in protein C activation, TM exposed to 1.77 Gy in the presence of MPO in test [1] is 40%. Further, the decrease of average RU value relative to baseline (0 Gy) in test [2] amounted to 21.6%; in test [3] it was 13.2%; in test [4], 18.9%.

(Values after patent US20110144024A1.)
